Measured values reported in patent publication US20150197571A1.
One block for each molecule: values may come before it.

Assays:
[1] = target: human PD-L1 expressed on 300.19 cells (human) (UniProt Q9NZQ7); assay: FACS blockade, B7-1-hIgG on 300-hPD-L1 cells, mAb 0.078 ug/ml
[2] = target: human PD-L1 expressed on 300.19 cells (human) (UniProt Q9NZQ7); assay: FACS blockade, B7-1-hIgG on 300-hPD-L1 cells, mAb 0.0195 ug/ml
[3] = target: human PD-L1 expressed on 300.19 cells (human) (UniProt Q9NZQ7); assay: FACS blockade, B7-1-hIgG on 300-hPD-L1 cells, mAb 20 ug/ml
[4] = target: human PD-L1 expressed on 300.19 cells (human) (UniProt Q9NZQ7); assay: FACS blockade, B7-1-hIgG on 300-hPD-L1 cells, mAb '0.0.39' [sic] ug/ml
[5] = target: T1, human PD-L2 expressed on 300.19 cells (human) (UniProt Q9BQ51); assay: FACS blockade, PD-1-hIgG1 on PD-L2 300.19 cells
T1 sequence: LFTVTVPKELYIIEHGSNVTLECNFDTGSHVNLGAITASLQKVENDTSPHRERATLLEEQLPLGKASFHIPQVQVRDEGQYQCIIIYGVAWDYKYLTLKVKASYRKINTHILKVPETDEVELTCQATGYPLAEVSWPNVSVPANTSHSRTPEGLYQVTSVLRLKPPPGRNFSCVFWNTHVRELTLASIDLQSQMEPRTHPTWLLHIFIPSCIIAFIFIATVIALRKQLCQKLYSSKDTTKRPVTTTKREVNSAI

[6] = target: human PD-L1 expressed on 300.19 cells (human) (UniProt Q9NZQ7); assay: FACS blockade, B7-1-hIgG on 300-hPD-L1 cells, mAb 1.25 ug/ml
[7] = target: human PD-L1 expressed on 300.19 cells (human) (UniProt Q9NZQ7); assay: FACS blockade, B7-1-hIgG on 300-hPD-L1 cells, mAb 10 ug/ml
[8] = target: T1, human PD-L2 expressed on 300.19 cells (human); assay: FACS competition, PD-1-Ig on hPD-L2 300 cells, mAb 3.3 ug/ml
[9] = target: human PD-L1 expressed on 300.19 cells (human) (UniProt Q9NZQ7); assay: FACS on hPD-L1 300 cells, antibody 1 ug/ml
[10] = target: human PD-L1 expressed on 300.19 cells (human) (UniProt Q9NZQ7); assay: FACS blockade, B7-1-hIgG on 300-hPD-L1 cells, mAb 2.5 ug/ml
[11] = target: T1, human PD-L2 expressed on 300.19 cells (human); assay: FACS competition, PD-1-Ig on hPD-L2 300 cells, mAb 10 ug/ml
[12] = target: T1, human PD-L2 expressed on 300.19 cells (human); assay: FACS on hPD-L2 300 cells, antibody 10 ug/ml
[13] = target: human PD-L1 expressed on 300.19 cells (human) (UniProt Q9NZQ7); assay: FACS on hPD-L1 300 cells, antibody 0.1 ug/ml
[14] = target: human PD-L1 expressed on 300.19 cells (human) (UniProt Q9NZQ7); assay: FACS competition, PD-1-Ig on hPD-L1 300 cells, mAb 10 ug/ml
[15] = target: T1, human PD-L2 expressed on 300.19 cells (human); assay: FACS competition, PD-1-Ig on hPD-L2 300 cells, mAb 0.04 ug/ml
[16] = target: human PD-L1 expressed on 300.19 cells (human) (UniProt Q9NZQ7); assay: FACS blockade, B7-1-hIgG on 300-hPD-L1 cells, mAb 0.313 ug/ml
[17] = target: human PD-L1 expressed on 300.19 cells (human) (UniProt Q9NZQ7); assay: FACS competition, PD-1-Ig on hPD-L1 300 cells, mAb 0.04 ug/ml
[18] = target: human PD-L1 expressed on 300.19 cells (human) (UniProt Q9NZQ7); assay: FACS competition, PD-1-Ig on hPD-L1 300 cells, mAb 0.37 ug/ml
[19] = target: human PD-L1 expressed on 300.19 cells (human) (UniProt Q9NZQ7); assay: FACS competition, PD-1-Ig on hPD-L1 300 cells, mAb 90 ug/ml
[20] = target: human PD-L1 expressed on 300.19 cells (human) (UniProt Q9NZQ7); assay: FACS blockade, B7-1-hIgG on 300-hPD-L1 cells, mAb 0.156 ug/ml
[21] = target: T1, human PD-L2 expressed on 300.19 cells (human); assay: FACS competition, PD-1-Ig on hPD-L2 300 cells, mAb 0.37 ug/ml
[22] = target: human PD-L1 expressed on 300.19 cells (human) (UniProt Q9NZQ7); assay: FACS blockade, B7-1-hIgG on 300-hPD-L1 cells, mAb 0.625 ug/ml
[23] = target: human PD-L1 expressed on 300.19 cells (human) (UniProt Q9NZQ7); assay: FACS blockade, B7-1-hIgG on 300-hPD-L1 cells, mAb 0.0098 ug/ml
[24] = target: T1, human PD-L2 expressed on 300.19 cells (human); assay: FACS competition, PD-1-Ig on hPD-L2 300 cells, mAb 30 ug/ml
[25] = target: T1, human PD-L2 expressed on 300.19 cells (human); assay: FACS on 300.19 cells expressing human PD-L2
[26] = target: T1, human PD-L2 expressed on 300.19 cells (human); assay: FACS competition, PD-1-Ig on hPD-L2 300 cells, mAb 0.12 ug/ml
[27] = target: human PD-L1 expressed on 300.19 cells (human) (UniProt Q9NZQ7); assay: FACS blockade, B7-1-hIgG on 300-hPD-L1 cells, mAb 5 ug/ml
[28] = target: T1, human PD-L2 expressed on 300.19 cells (human); assay: FACS competition, PD-1-Ig on hPD-L2 300 cells, mAb 90 ug/ml
[29] = target: human PD-L1 expressed on 300.19 cells (human) (UniProt Q9NZQ7); assay: FACS competition, PD-1-Ig on hPD-L1 300 cells, mAb 1.1 ug/ml
[30] = target: human PD-L1 expressed on 300.19 cells (human) (UniProt Q9NZQ7); assay: FACS blockade, PD-1-hIgG1 on PD-L1 300.19 cells
[31] = target: T1, human PD-L2 expressed on 300.19 cells (human); assay: FACS competition, PD-1-Ig on hPD-L2 300 cells, mAb 1.1 ug/ml
[32] = target: human PD-L1 expressed on 300.19 cells (human) (UniProt Q9NZQ7); assay: FACS on 300.19 cells expressing human PD-L1
[33] = target: human PD-L1 expressed on 300.19 cells (human) (UniProt Q9NZQ7); assay: FACS on hPD-L1 300 cells, antibody 10 ug/ml
[34] = target: T1, human PD-L2 expressed on 300.19 cells (human); assay: FACS on hPD-L2 300 cells, antibody 0.1 ug/ml
[35] = target: T1, human PD-L2 expressed on 300.19 cells (human); assay: FACS on hPD-L2 300 cells, antibody 1 ug/ml
[36] = target: human PD-L1 expressed on 300.19 cells (human) (UniProt Q9NZQ7); assay: FACS competition, PD-1-Ig on hPD-L1 300 cells, mAb 3.3 ug/ml
[37] = target: T1, human PD-L2 expressed on 300.19 cells (human); assay: FACS on hPD-L2 300 cells, supernatant 1 to 100
[38] = target: T1, human PD-L2 expressed on 300.19 cells (human); assay: FACS, hybridoma supernatant on 300.19 cells expressing human PD-L2
[39] = target: T1, human PD-L2 expressed on 300.19 cells (human); assay: FACS on hPD-L2 300 cells, supernatant undiluted
[40] = target: T1, human PD-L2 expressed on 300.19 cells (human); assay: FACS on hPD-L2 300 cells, supernatant 1 to 10
[41] = target: human PD-L1 expressed on 300.19 cells (human) (UniProt Q9NZQ7); assay: FACS competition, PD-1-Ig on hPD-L1 300 cells, mAb 30 ug/ml
[42] = target: human PD-L1 expressed on 300.19 cells (human) (UniProt Q9NZQ7); assay: FACS competition, PD-1-Ig on hPD-L1 300 cells, mAb 0.12 ug/ml

UniProt Q9NZQ7, sequence (Q9NZQ7 19-290): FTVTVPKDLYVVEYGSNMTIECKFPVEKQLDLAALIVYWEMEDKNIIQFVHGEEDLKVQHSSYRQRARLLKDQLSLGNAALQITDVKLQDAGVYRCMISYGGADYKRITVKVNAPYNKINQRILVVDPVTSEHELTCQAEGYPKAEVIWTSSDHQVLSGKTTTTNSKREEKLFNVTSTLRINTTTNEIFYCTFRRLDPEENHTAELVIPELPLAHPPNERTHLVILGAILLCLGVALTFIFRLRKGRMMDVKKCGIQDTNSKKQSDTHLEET

Mean of PE Signal (bound B7-1-Ig) [1]: 397
Mean of PE Signal (bound B7-1-Ig) [2]: 3500
Mean of PE Signal (bound B7-1-Ig) [3]: 4540
Mean of PE Signal (bound B7-1-Ig) [4]: 4280
Molecule: C1.18 mIgG2a control (antibody)

MFI of bound PD-1-Ig (inversely proportional to blockage) [5]: 19200
Mean of PE Signal (bound B7-1-Ig) [6]: 3490
Mean of PE Signal (bound B7-1-Ig) [7]: 3550
Mean of PE Signal (bound PD-1-Ig) [8]: 52600
Mean of PE signal [9]: 183
Mean of PE Signal (bound B7-1-Ig) [10]: 3880
Mean of PE Signal (bound PD-1-Ig) [11]: 52500
Mean of PE signal [12]: 173
Mean of PE signal [13]: 250
Mean of PE Signal (bound PD-1-Ig) [14]: 12600
Mean of PE Signal (bound PD-1-Ig) [15]: 60800
Mean of PE Signal (bound B7-1-Ig) [16]: 3960
Mean of PE Signal (bound PD-1-Ig) [17]: 13300
Mean of PE Signal (bound PD-1-Ig) [18]: 13500
Mean of PE Signal (bound B7-1-Ig) [1]: 4320
Mean of PE Signal (bound PD-1-Ig) [19]: 11800
Mean of PE Signal (bound B7-1-Ig) [20]: 3720
Mean of PE Signal (bound PD-1-Ig) [21]: 60600
Mean of PE Signal (bound B7-1-Ig) [22]: 3710
Mean of PE Signal (bound B7-1-Ig) [23]: 4410
Mean of PE Signal (bound PD-1-Ig) [24]: 54200
Mean of PE Signal (bound B7-1-Ig) [2]: 4760
MFI [25]: 19
Mean of PE Signal (bound PD-1-Ig) [26]: 59100
Mean of PE Signal (bound B7-1-Ig) [3]: 3590
Mean of PE Signal (bound B7-1-Ig) [4]: 3990
Mean of PE Signal (bound B7-1-Ig) [27]: 3580
Mean of PE Signal (bound PD-1-Ig) [28]: 53500
Mean of PE Signal (bound PD-1-Ig) [29]: 13600
MFI of bound PD-1-Ig (inversely proportional to blockage) [30]: 26700
Mean of PE Signal (bound PD-1-Ig) [31]: 58400
MFI [32]: 45
Mean of PE signal [33]: 263
Mean of PE signal [34]: 149
Mean of PE signal [35]: 164
Mean of PE Signal (bound PD-1-Ig) [36]: 11900
Molecule: MOPC31C isotype control antibody

MFI of bound PD-1-Ig (inversely proportional to blockage) [5]: 21100
Mean of PE Signal (bound PD-1-Ig) [8]: 56000
Mean of PE Signal (bound PD-1-Ig) [11]: 56800
Mean of PE signal [37]: 672
Mean of PE Signal (bound PD-1-Ig) [15]: 54700
MFI [38]: 93
Mean of PE Signal (bound PD-1-Ig) [21]: 52400
Mean of PE Signal (bound PD-1-Ig) [24]: 56100
Mean of PE Signal (bound PD-1-Ig) [26]: 52500
Mean of PE signal [39]: 840
Mean of PE Signal (bound PD-1-Ig) [28]: 52200
Mean of PE Signal (bound PD-1-Ig) [31]: 54600
Mean of PE signal [40]: 757
B1: 4H1 monoclonal antibody (antibody, V domains shown)
VH: DVQLQESGPGLVKPSQSLSLTCTVTDYSITSDYAWTWIRQFPGNKLEWMGYITYRGTTRYNPSLTSRISFTRDTSKNQLFLQLNSVTTEDTGTYCCARSMITTGYYAMDYWGQGTSVTVSS
VL: DIVMTQSHKFMSTSVGDRVSISCKASQDVGISVAWYQQKPGQSPKLLIYWASTRHTGVPVRFTGSGSGTDFTLTISNVQSEDLADYFCQQYSSYPPTFGAGTKLELK

Mean of PE Signal (bound B7-1-Ig) [6]: 788
Mean of PE Signal (bound B7-1-Ig) [7]: 797
Mean of PE Signal (bound PD-1-Ig) [8]: 56700
Mean of PE signal [9]: 234000
Mean of PE Signal (bound B7-1-Ig) [10]: 823
Mean of PE Signal (bound PD-1-Ig) [11]: 53800
Mean of PE signal [12]: 251
Mean of PE signal [13]: 109000
Mean of PE Signal (bound PD-1-Ig) [14]: 52
Mean of PE Signal (bound PD-1-Ig) [15]: 58800
Mean of PE Signal (bound B7-1-Ig) [16]: 770
Mean of PE Signal (bound PD-1-Ig) [17]: 6100
Mean of PE Signal (bound PD-1-Ig) [18]: 65
Mean of PE Signal (bound B7-1-Ig) [1]: 807
Mean of PE Signal (bound PD-1-Ig) [19]: 54
Mean of PE Signal (bound B7-1-Ig) [20]: 853
Mean of PE Signal (bound PD-1-Ig) [21]: 52900
Mean of PE Signal (bound B7-1-Ig) [22]: 850
Mean of PE Signal (bound B7-1-Ig) [23]: 2540
Mean of PE Signal (bound PD-1-Ig) [24]: 53900
Mean of PE Signal (bound B7-1-Ig) [2]: 1710
Mean of PE Signal (bound PD-1-Ig) [26]: 53900
Mean of PE Signal (bound B7-1-Ig) [3]: 811
Mean of PE Signal (bound B7-1-Ig) [4]: 1230
Mean of PE Signal (bound PD-1-Ig) [41]: 53
Mean of PE Signal (bound B7-1-Ig) [27]: 853
Mean of PE Signal (bound PD-1-Ig) [28]: 55100
Mean of PE Signal (bound PD-1-Ig) [42]: 523
Mean of PE Signal (bound PD-1-Ig) [29]: 51
Mean of PE Signal (bound PD-1-Ig) [31]: 56100
Mean of PE signal [33]: 235000
Mean of PE signal [34]: 150
Mean of PE signal [35]: 150
Mean of PE Signal (bound PD-1-Ig) [36]: 50
B2: 29E.2A3 (antibody, from a related filing, V domains shown)
VH: EVQLQQSGPELVKPGASVKMSCKASGYTFTSYVMHWVKQKPGQGLEWIGYVNPFNDGTKYNEMFKGKATLTSDKSSSTAYMELSSLTSEDSAVYYCARQAWGYPWGQGTLVTVSA
VL: DIVLTQSPASLAVSLGQRATISCRATESVEYYGTSLVQWYQQKPGQPPKLLIYAASSVDSGVPARFSGSGSGTDFSLTIHPVEEDDIAMYFCQQSRRVPYTFGGGTKLEIK
